Earlier results, collected in article PMC3222890.
Read-outs that look alike come from different tables or passages of the source. Blank lines part the entries; values can stand above or below the substance they belong to.

Experiments:
[1] = molecular target: GDI (Saccharomyces cerevisiae) (UniProt P39958)
[2] = molecular target: GDI (Saccharomyces cerevisiae) (UniProt P39958); remark: listed apart in the source
[3] = molecular target: GDI (Saccharomyces cerevisiae) (UniProt P39958); remark: listed apart in the source

Sequence of UniProt P39958 (P39958 whole entry): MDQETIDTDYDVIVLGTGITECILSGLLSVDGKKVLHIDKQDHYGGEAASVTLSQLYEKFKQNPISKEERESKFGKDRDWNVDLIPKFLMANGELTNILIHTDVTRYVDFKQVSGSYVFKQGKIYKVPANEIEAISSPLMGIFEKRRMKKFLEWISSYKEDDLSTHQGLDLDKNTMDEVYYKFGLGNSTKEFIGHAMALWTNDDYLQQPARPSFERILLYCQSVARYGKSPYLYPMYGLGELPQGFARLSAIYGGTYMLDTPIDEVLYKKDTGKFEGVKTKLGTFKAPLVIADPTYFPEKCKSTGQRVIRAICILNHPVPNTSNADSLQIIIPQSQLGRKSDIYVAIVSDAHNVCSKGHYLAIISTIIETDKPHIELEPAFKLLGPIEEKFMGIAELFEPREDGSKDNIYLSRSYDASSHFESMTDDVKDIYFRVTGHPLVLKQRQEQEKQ

Kd [1]: 18.9 µM
Substance: Ypt31 (from UniProt P38555)

Kd [2]: 1500 nM
Substance: Ypt32 (from UniProt P51996)

Kd [3]: 330 nM
Substance: Sec4 (from UniProt P07560)
